T1: Cynomolgus monkey DLL3 on HEK293 cells (HEK293-cyno DLL3) (Cynomolgus monkey, UniProt Q9NYJ7 27-618 (human entry))
T1 chain: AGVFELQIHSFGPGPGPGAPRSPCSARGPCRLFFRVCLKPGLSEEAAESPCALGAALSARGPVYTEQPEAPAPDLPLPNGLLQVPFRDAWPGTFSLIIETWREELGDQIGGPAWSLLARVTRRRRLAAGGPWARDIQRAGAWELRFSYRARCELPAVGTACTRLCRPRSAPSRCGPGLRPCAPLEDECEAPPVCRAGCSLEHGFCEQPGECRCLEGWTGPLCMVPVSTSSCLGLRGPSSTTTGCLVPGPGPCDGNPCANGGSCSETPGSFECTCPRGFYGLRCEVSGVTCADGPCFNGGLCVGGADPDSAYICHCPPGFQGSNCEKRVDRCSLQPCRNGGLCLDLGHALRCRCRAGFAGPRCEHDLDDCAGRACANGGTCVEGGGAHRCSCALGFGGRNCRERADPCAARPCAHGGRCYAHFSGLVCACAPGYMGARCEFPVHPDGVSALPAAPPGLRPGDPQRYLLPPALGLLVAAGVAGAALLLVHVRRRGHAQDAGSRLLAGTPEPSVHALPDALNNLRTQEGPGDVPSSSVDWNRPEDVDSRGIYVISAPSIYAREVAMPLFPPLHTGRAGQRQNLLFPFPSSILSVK

T2: human DLL3 antigen protein (Kactus Biosystems, Cat. No. DLL-HM103) (human, UniProt Q9NYJ7 27-492)
T2 sequence: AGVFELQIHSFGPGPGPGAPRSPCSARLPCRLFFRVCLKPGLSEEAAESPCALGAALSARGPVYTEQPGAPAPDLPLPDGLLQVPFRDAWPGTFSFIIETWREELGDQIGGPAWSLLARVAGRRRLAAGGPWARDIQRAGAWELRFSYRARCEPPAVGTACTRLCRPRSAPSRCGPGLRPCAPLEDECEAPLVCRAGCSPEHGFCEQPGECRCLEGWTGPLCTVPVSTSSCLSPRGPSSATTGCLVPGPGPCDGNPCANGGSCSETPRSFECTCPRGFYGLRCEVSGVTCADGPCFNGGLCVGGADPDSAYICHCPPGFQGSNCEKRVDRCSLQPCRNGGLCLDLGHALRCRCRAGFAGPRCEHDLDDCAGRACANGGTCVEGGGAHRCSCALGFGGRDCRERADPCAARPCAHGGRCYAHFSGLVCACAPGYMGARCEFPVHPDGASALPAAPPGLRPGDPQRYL


Experiments:
[1] = molecular target: T1, Cynomolgus monkey DLL3 on HEK293 cells …; assay: flow cytometry, HEK293-cyno DLL3 cells
Experimental: Monoclonal selection was performed, and the expression level of DLL3 protein in the monoclonal cells were identified by flow cytometry. The culture was expanded and stored in storage for later use. SHP-77 and HEK293-cyno DLL3 cells were cultured. The culture medium for SHP-77 cells were RPMI1640+10% FBS, and the culture medium for HEK293 cyno DLL3 cells were DMEM+10% FBS+200 μg/ml Hygromycin. The cells were cultured in a T75 cell culture flask at a 37° ° C. in a 5% CO₂ incubator. When using cells, they are washed with sterile DPBS, digested with 0.25% trypsin EDTA for about 5 minutes, and then stopped with a complete medium.
The digested cells were centrifuged at 1000 rpm for 5 min at room temperature. The supernatant was discarded and the cells were resuspended in 100 μL of 1% BSA (in PBS). The cells were counted and adjusted to a cell density of 1E6/m. The dilute cells were seeded in a 96-well round-bottom culture plate (corning 3799), and centrifuged at 1500 rpm for 5 min at 4° C. The supernatant was discarded and the cells were stored at 4° C. until use. Antibody samples to be tested were diluted with 1% BSA (in PBS) at a starting concentration of 100 nM, downwards by a 10-fold gradient for 7 concentrations. The cells were resuspended with the diluted antibody at 100 μL/well and incubated for 1 hour at 4° C. The cells were centrifuged at 1500 rpm for 5 minutes at 4° C. and the supernatant was discarded. The cells were resuspended and washed with 160 μL of 1% BSA (in PBS), centrifuged at 1500 rpm for 5 minutes at 4° C. The supernatant was discarded. The secondary antibody (goat anti human IgG Fc PE) was diluted 1:200 with 1% BSA (in PBS) according to the manufacturer's instructions and the cells were resuspended with the diluted secondary antibody. 100 μL/well, and incubated for 0.5 h at 4° C. The cells were centrifuged at 1500 rpm for 5 minutes at 4° C. and the supernatant was discarded. The cells were resuspended and washed with 160 μL of 1% BSA (in PBS), centrifuged at 1500 rpm for 5 minutes at 4° C. The supernatant was discarded. The cells were resuspended in 100 μL of 1% BSA (in PBS), and filtered across a 300 mesh gauze. The mean fluorescence intensity of the PE channels was measured by flow cytometry.

[2] = molecular target: T2, human DLL3 antigen protein (Kactus …); assay: SPR (Biacore 8K), antibody captured on anti-human Fc, DLL3 in solution
Experimental: The affinity and kinetic properties of the humanized anti-DLL3 antibody to human DLL3 were analyzed using a Biacore 8K instrument. CM5 chips were activated with EDC and NHS, followed by immobilization of anti-human Fc murine mAb and blocked with ethanolamine.
Human DLL3 was diluted two-fold serially to serial concentrations (100 nM-0.39 nM) and associated for 90 s and dissociated for 600 s at a flow rate of 50 μL/min.
After completion of each cycle of the experiment, the captured antibody was removed together with the antigen by washing with a 3M MgCl₂ solution at a flow rate of 30 μL/min for 30 s to complete the regeneration of the chip. The raw data were analyzed using Biacore Insight Evaluation Software (3.0.12.15655) software and fitted with a (1:1) Langmuir model.

Row | EC50 [1] [nM] | Top MFI [1] [MFI] | Kd [2] [nM] | koff [2] [s⁻¹] | kon [2] [M⁻¹ s⁻¹] | Binder
1 |  |  | 4.73 | 0.000466 | 98500 | hDLL3-122 camelid-derived humanized anti-DLL3 antibody (antibody, V domains shown) VH: EVQLVESGGGLVQPGGSLRLSCAASGDTYRSYCMGWFRQAPGKEREGVADIVSDGSTSYADSVKGRFTISRDNSKNTLYLQMNSLRAEDTAVYYCAVDRGGSGGYCYTGRYDYWGQGTLVTVSS
2 | 0.025 | 438 | 0.127 | 0.000274 | 2.15e+06 | DLL3-3 camelid-derived anti-DLL3 chimeric antibody (antibody, human IgG1, V domains shown) VH: DVQLVESGGGSVQAGGSLKLSCKSPTYTISSGYMGWFRQAPGKEREGVAAIYIGGSTTLYADSVKGRFTISADNAEKTVYLQMNTLKPEDSAMYYCAAQLRPNSAYHPLDGRKYNYWGQGTQVTVSS
3 |  |  | 0.399 | 0.000776 | 1.95e+06 | hDLL3-3-2 camelid-derived humanized anti-DLL3 antibody (antibody, V domains shown) VH: EVQLVESGGGLVQPGGSLRLSCKSPTYTISSGYMGWFRQAPGKEREGVAAIYIGGSTTLYADSVKGRFTISRDNSKNTLYLQMNSLRAEDTAVYYCAAQLRPNSAYHPLDGRKYNYWGQGTLVTVSS

The next lines start with the binder.

Row | Binder | EC50 [1] [nM] | Top MFI [1] [MFI] | Kd [2] [nM] | koff [2] [s⁻¹] | kon [2] [M⁻¹ s⁻¹]
4 | DLL3-122 camelid-derived anti-DLL3 chimeric antibody (antibody, human IgG1, V domains shown) VH: QVQLVESGGGSVQAGGSLRLSCTASGDTYRSYCMGWFRKAPGKEREGVADIVSDGSTSYADSVKGRFTISKDNAKNTLYLQMNSLKPEDTAMYYCAVDRGGSGGYCYTGRYDYWGQGTQVTVSS | 0.415 | 460 | 4.21 | 0.000392 | 93200
5 | DLL3-26 camelid-derived anti-DLL3 chimeric antibody (antibody, human IgG1, V domains shown) VH: QVQLVESGGGSVQAGGSLRLSCAASGDIYSSSYVGWFRQAPGKEREGVAIIYTSGDSTYYANSVKGRFTISQDKAKKTLYLQMNSLKPEDTAMYYCAARFAIDNSNYWGQGTQVTVSS | 0.439 | 450 | 0.0322 | 1.23e-05 | 382000
6 | hDLL3-26 camelid-derived humanized anti-DLL3 antibody (antibody, V domains shown) VH: EVQLVESGGGLVQPGGSLRLSCAASGDIYSSSYVGWFRQAPGKEREGVAIIYTSGDSTYYADSVKGRFTISRDNSKNTLYLQMNSLRAEDTAVYYCAARFAIDNSNYWGQGTLVTVSS |  |  | 1.69 | 0.000355 | 210000
7 | hDLL3-3-1 camelid-derived humanized anti-DLL3 antibody (antibody, human IgG1, V domains shown) VH: EVQLVESGGGLVQPGGSLRLSCAASTYTISSGYMGWFRQAPGKEREGVAAIYIGGSTTLYADSVKGRFTISRDNSKNTLYLQMNSLRAEDTAVYYCAAQLRPNSAYHPLDGRKYNYWGQGTLVTVSS |  |  | 0.304 | 0.00058 | 1.91e+06

From patent US20240239878A1 (SHANGHAI QILU PHARMACEUTICAL RESEARCH AND DEVELOPMENT CENTRE, published 2024)
